Here are results for three molecules from PMC5743061.

By stoichiometry N is commonly meant the number of molecules, sites or subunits per partner or assembly.

The target of assay [1] is CHC22Δx9 (human) (UniProt P53675). In words: deep-etch electron microscopy; purified CHC isoforms adsorbed on mica flakes, quick-frozen, freeze-fractured, deep-etched, platinum-replicated; CHC22Δx9 released in high Tris buffer pH 7.0, CHC17 released in HEPES buffer pH 7.0.
The target in assay [2] is CHC17 clathrin heavy chain (human (endogenous in HeLa)) (UniProt Q00610).
In assay [3] the target is CHC22 clathrin heavy chain (human (endogenous in HeLa)) (UniProt P53675).
Assay [4] concerns the target T1, CHC17 clathrin heavy chain (human (endogenous in HeLa)), Q00610.
T1 chain: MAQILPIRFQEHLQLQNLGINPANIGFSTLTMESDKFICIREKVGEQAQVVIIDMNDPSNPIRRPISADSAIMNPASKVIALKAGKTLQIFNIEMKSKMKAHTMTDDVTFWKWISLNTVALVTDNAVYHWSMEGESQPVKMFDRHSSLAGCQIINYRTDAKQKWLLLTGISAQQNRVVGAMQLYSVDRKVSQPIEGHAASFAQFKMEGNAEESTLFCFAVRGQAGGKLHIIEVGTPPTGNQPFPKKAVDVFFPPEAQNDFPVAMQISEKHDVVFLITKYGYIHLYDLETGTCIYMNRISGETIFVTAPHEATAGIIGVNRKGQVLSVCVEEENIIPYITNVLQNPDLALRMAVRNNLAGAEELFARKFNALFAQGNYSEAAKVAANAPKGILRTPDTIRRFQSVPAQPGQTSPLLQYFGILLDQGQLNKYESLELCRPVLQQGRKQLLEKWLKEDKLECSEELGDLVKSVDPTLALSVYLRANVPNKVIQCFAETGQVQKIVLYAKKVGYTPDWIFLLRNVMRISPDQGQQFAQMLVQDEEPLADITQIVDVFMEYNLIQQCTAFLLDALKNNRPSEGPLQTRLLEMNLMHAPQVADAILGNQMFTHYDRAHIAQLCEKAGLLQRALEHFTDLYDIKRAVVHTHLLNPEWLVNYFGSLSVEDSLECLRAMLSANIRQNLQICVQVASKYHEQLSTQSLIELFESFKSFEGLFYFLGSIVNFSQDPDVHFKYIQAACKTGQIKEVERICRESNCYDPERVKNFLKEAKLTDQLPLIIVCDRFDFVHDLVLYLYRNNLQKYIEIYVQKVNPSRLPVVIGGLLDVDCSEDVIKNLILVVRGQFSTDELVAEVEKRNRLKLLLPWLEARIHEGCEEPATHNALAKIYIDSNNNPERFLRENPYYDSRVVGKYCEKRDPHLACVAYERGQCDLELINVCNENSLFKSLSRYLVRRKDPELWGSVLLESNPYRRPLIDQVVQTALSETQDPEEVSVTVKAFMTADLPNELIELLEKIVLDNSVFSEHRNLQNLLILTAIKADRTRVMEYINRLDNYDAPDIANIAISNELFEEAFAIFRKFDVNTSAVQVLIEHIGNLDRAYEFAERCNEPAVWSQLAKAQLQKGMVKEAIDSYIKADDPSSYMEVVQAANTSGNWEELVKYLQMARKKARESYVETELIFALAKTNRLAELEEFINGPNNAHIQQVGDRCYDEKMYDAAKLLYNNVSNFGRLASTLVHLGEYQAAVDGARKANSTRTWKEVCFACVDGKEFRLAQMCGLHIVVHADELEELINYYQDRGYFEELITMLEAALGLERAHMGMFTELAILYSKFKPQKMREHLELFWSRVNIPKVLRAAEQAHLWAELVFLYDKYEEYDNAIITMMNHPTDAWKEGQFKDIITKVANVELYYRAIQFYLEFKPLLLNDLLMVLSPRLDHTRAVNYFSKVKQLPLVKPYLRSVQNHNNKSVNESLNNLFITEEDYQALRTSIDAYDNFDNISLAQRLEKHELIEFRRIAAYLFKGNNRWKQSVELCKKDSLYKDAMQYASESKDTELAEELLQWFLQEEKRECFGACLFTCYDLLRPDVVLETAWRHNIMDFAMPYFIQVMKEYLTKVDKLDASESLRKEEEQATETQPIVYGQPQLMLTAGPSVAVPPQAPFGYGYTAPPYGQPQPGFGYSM
Description: deep-etch electron microscopy; purified CHC isoforms adsorbed on mica flakes, quick-frozen, freeze-fractured, deep-etched, platinum-replicated; CHC22Δx9 released in high Tris buffer pH 7.0, CHC17 released in HEPES buffer pH 7.0. Conditions: remark: other sources report otherwise.

UniProt P53675, sequence (P53675 whole entry, canonical isoform): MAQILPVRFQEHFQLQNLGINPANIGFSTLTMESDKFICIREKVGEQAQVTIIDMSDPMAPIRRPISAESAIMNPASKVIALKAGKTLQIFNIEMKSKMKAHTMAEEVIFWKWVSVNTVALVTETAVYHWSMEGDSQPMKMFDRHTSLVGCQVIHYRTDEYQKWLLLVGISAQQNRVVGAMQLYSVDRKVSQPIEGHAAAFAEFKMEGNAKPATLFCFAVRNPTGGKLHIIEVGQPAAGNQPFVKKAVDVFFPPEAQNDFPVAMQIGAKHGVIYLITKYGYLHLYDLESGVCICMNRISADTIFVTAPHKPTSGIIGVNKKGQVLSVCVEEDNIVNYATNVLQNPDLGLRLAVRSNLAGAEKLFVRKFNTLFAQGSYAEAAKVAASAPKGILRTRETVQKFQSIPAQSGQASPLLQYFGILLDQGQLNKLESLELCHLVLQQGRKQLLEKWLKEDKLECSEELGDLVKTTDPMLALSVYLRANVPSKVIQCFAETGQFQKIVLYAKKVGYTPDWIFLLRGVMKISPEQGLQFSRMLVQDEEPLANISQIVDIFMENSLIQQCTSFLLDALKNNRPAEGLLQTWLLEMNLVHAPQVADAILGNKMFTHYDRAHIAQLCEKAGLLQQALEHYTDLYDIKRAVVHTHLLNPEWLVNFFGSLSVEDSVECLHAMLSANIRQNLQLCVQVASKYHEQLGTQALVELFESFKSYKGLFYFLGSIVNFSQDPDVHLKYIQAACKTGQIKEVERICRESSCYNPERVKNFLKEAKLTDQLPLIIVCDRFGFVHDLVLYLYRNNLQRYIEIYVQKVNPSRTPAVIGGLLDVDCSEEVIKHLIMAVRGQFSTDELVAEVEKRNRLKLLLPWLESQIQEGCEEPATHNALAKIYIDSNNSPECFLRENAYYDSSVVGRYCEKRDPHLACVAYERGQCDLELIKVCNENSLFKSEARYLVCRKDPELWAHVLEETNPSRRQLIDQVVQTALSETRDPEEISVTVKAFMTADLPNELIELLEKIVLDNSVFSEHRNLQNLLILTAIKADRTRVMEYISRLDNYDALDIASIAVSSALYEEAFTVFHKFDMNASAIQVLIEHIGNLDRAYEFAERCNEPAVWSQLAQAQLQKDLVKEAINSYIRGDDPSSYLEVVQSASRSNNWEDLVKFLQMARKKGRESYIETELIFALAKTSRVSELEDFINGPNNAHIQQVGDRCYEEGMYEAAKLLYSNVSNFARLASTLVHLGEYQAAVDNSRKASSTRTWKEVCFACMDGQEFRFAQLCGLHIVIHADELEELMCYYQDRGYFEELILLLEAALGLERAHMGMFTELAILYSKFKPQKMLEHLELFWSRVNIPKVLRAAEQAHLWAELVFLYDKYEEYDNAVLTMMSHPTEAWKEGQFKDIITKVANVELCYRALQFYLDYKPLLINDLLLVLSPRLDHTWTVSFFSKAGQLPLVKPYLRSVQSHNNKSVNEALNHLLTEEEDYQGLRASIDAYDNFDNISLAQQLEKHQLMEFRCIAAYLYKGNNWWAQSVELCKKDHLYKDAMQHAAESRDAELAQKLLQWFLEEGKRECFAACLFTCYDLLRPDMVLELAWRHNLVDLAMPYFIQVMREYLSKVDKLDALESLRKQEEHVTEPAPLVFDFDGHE

“CHC22Δx9 (from UniProt P53675 1-1640) (natural protein)”: the stoichiometry N in assay [1] turned out to be 3. On to “70-kDa heat-shock cognate protein (Hsc70) (from UniProt P63018 1-646) (enzyme)”, for which the release of CHC from HeLa CCVs into the supernatant, S/(S+P) by immunoblot, with uncoating complex (Hsc70 1.3 μM + GST-auxilin(401–910) 0.13 μM) plus ATP 0.5 mM, 10 min, 37 °C is above 50% in assay [2] and 16% in assay [3].

B1: CHC17 clathrin heavy chain, Q00610 1-1675 (natural protein)
chain: T1 chain
As to B1, the stoichiometry N in assay [4] was found to be 3.
